As a reminder, the Kd is the concentration at which binding is half-saturated.

Primed or numbered codes have the meaning given here. Ends that are not written are not given here. FITC′ = fluorescein isothiocyanate

For two molecules, Kd results are on record in PMC3929611 (2014).

One test deals with T1, FITC-labeled α1 peptide (rat).
T1 peptide: {FITC′}-QPSQDELKDNTTVFT
The experiment in a line: FP.

The next test addresses T2, FITC-labeled β2 peptide (rat, UniProt P63138).
T2 peptide: {FITC′}-MWRVRKRGYFGIWSFPLII
Description: FP.

B1: A10 scFv (anti-α1 subunit-specific scFv), soluble protein (scFv, V domains shown)
VH: EVQLVQSGAEVKKPGASVKVSCKASGYTFTSYYMHWVRQAPGQGLEWMGIINPSGGSTSYAQKFQGRVTMTRDTSTSTVYMELSSLRSEDTAVYYCARDGWGGSSFLDYWGQGTLVTVSS
VL: SYELTQPPSVSVSPGQTARITCSGDALPKKYAYWYQQKSGQAPVLVIYEDSKRPSGIPERFSGSSSGTMATLTISGAQVEDEADYYCYSKDNTGYQMVFGGGTKLTVL
B1 registered a Kd with FITC-labeled α1 peptide of 3 µM. This counts as single-digit micromolar.

B2: G8 scFv (anti-β2 subunit scFv), soluble protein (scFv, V domains shown)
VH: EVQLVQSGAEVKKPGATVKISCKVSGYTFTDYYMHWVQQAPGKGLEWMGLVDPEDGETIYAEKFQGRVTITADTSTDTAYMELSSLRSEDTAVYYCATTPPHDYYDSSGLDYWGQGTLVTVSS
VL: DIQMTQSPSSVSASVGDRVTITCRASQGINRWLAWYQQKPGKAPKLLIYAASNLQSGVPSRFSGSGSGTDFSLTISSLQPEDFATYYCQQSYSPPSTFGGGTKLEIK
B2 had a dissociation constant Kd with FITC-labeled β2 peptide of 0.82 µM.
